In US20210277053A1:
Where two headings read alike, the source gives them in different places.

Legend:
Assay in all cases: ELISA on immobilised human gamma globulin, anti-6-His detection; antibody-binding activity after 0.5 M NaOH, 25 C, 15 h divided by activity without alkali treatment
[1] = target: gamma globulin (manufactured by The Chemo-Sero-Therapeutic Research Institute), a human antibody (human)
[2] = target: gamma globulin (manufactured by The Chemo-Sero-Therapeutic Research Institute), a human antibody (human); remark: listed apart in the source
[3] = target: gamma globulin (manufactured by The Chemo-Sero-Therapeutic Research Institute), a human antibody (human); remark: listed apart in the source
[4] = target: gamma globulin (manufactured by The Chemo-Sero-Therapeutic Research Institute), a human antibody (human); remark: listed apart in the source

With “SpA6c (SpA6a with Lys(Glu)58Val) (designed binder)” the Remaining activity [%] [1] was 87%.
In the case of “SpA5e (SpA4a with Asn11Tyr) (designed binder)”, the Remaining activity [%] [1] is reported as 85%.
“SpA6b (SpA6a with Lys(Glu)58Asp) (designed binder)” showed a Remaining activity [%] [1] of 87%.
Work on “SpA5d (SpA4a with Asn11Lys) (designed binder)” yielded a Remaining activity [%] [2] of 86%, a Remaining activity [%] [3] of 88% and a Remaining activity [%] [1] of 89%.
“SpA5f (SpA5d with Lys(Glu)58Gly) (designed binder)” gave a Remaining activity [%] [3] of 90%.
For “SpA7a (SpA6a with Val40Ala) (designed binder)”, the Remaining activity [%] [1] was 89%.
“SpA6a (SpA5d with Glu15Ala) (designed binder)” was tested, and the Remaining activity [%] [3] was 91%, the Remaining activity [%] [4] was 83% and the Remaining activity [%] [1] was 86%.
“SpA7b (SpA6a with Asn3Ile) (designed binder)” was tested, and the Remaining activity [%] [4] was 88%.
